Assay results from publication PMC8444619.

Legend:
Test in all cases: cross-linking
[1] = target: NS5A^HA W84-TAG (azF) D18A (hepatitis C virus)
[2] = target: NS4B^HA M80-TAG (azF) (hepatitis C virus)
[3] = target: NS4B^HA A180-TAG (azF) (hepatitis C virus)
[4] = target: NS5A^HA I15-TAG (azF) F36A/I37A/S38A/R112A/E148A (hepatitis C virus)
[5] = target: NS4B^HA I96-TAG (azF) (hepatitis C virus)
[6] = target: NS5A^HA W84-TAG (azF) (hepatitis C virus)
[7] = target: NS4B^HA K162-TAG (azF) (hepatitis C virus)
[8] = target: HA-tagged GST V125-TAG (azF) (E. coli) (UniProt P0A9D2)
[9] = target: NS4B^HA (HA-tagged HCV NS4B, wild type, in NS3-5B-4B^HA) (hepatitis C virus)

Question: For “NS5A^HA W84-TAG (azF) D18A (natural protein)”, which percent of the control level (% of the control level) [1] is on record?
Answer: 66

Question: NS4B^HA M80-TAG (azF) (natural protein) was tested. Which stoichiometry N [2] did it give?
Answer: 2

Question: With “NS4B^HA A180-TAG (azF) (natural protein)” as the substance, how does the stoichiometry N [3] read?
Answer: 2

Question: How did the percent of the control level (% of the control level) [4] turn out when “NS5A^HA I15-TAG (azF) F36A/I37A/S38A/R112A/E148A (natural protein)” was run?
Answer: 55

Question: Which stoichiometry N [5] does the source give for NS4B^HA I96-TAG (azF) (natural protein) here?
Answer: 2

Question: With NS5A^HA W84-TAG (azF) (natural protein) as the substance, how does the stoichiometry N [6] read?
Answer: 2

Question: How did the stoichiometry N [7] turn out when “NS4B^HA K162-TAG (azF) (natural protein)” was run?
Answer: 2

Question: “HA-tagged GST V125-TAG (azF) (from UniProt P0A9D2 1-201) (enzyme)” was tested. Which stoichiometry N [8] did it give?
Answer: 2

Question: With “NS4B^HA (HA-tagged HCV NS4B, wild type, in NS3-5B-4B^HA) (natural protein)” as the substance, how does the stoichiometry N [9] read?
Answer: 2
